Source: patent US20260258110A1, “VOLTAGE GATED SODIUM CHANNEL-SPECIFIC PEPTIDE APTAMERS AND USES THEREOF” (The Medical College of Wisconsin, Inc., priority 2023, published 2026)
Read-outs that look alike come from different tables or passages of the source. No end group written: not given here.

Legend:
hNav1.7 = target: T1, hNav1.7 (Homo sapiens, UniProt Q15858); test: Whole-cell voltage-clamp of INa1.7 in HEK1.7 cells after plasmid transfection; format: cell-based; settings: for INa1.7 in presence of NaviPA1 mutants: 3-4 days after transfection
T1 construct: the Nav1.7 antibody detected full-length Nav1.7 only in HEK1.7 cells
T1 sequence (Q15858 whole entry): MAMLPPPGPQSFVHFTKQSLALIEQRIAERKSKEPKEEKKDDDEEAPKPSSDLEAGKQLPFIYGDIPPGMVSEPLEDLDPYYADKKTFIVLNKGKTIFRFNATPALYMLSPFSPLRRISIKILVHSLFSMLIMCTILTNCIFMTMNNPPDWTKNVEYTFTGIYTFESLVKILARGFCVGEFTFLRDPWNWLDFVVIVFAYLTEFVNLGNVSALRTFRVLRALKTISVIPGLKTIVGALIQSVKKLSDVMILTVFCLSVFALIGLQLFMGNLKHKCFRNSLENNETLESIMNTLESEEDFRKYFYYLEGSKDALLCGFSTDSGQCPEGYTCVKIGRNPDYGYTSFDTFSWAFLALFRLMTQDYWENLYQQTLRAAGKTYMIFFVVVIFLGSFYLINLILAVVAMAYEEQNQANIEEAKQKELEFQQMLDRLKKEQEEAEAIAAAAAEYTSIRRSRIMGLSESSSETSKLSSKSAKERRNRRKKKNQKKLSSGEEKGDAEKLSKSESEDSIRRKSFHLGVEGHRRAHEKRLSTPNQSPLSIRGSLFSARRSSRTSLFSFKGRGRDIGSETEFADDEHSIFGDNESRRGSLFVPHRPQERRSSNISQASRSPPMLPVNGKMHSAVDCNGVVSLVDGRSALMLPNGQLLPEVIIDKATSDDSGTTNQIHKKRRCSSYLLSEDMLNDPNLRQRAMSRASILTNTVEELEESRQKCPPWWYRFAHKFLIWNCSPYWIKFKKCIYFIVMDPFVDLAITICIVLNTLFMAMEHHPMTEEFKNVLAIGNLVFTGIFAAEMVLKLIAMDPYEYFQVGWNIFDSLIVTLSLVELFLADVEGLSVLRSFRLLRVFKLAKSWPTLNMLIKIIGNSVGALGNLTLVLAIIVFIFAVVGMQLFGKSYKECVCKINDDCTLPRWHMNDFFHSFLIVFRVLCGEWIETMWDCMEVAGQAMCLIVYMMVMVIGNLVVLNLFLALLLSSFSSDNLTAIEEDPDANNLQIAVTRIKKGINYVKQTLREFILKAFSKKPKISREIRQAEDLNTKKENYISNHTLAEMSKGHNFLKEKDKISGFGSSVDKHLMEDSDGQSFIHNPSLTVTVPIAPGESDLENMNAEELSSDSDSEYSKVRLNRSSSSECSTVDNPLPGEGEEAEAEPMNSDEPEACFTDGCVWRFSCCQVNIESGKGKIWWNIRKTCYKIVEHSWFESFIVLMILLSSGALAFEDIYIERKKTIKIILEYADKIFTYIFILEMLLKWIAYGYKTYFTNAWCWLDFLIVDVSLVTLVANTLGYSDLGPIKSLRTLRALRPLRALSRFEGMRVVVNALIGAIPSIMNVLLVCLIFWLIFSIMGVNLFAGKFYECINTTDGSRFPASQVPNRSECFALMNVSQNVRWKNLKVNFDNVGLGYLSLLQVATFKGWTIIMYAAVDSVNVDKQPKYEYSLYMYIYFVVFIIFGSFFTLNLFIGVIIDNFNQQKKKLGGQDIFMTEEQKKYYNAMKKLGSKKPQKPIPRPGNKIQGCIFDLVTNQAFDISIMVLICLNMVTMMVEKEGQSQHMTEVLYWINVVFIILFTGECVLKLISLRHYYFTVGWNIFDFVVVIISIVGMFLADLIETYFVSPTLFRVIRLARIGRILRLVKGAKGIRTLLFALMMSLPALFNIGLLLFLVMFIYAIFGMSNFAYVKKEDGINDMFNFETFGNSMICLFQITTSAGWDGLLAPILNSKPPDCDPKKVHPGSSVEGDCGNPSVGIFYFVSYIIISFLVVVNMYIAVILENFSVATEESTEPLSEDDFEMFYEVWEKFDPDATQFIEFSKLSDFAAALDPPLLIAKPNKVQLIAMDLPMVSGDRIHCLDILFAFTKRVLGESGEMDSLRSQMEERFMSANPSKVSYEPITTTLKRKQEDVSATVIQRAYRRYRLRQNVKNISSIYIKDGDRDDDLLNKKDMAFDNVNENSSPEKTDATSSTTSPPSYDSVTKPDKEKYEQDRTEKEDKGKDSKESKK
Method: The stable expression of each construct was verified by transfection into HEK293 cells stably expressing human wild-type Nav1.7 (HEK1.7 cells), followed by immunoblots (IB). Representative tests for GFPlinker (GFP), 1.7iPAs (1, 2, 3, 4, 6) were shown (FIG. 1H, I). Initial screening experiments by whole-cell voltage-clamp of INa1.7 in HEK1.7 cells, transfected with plasmids encoding nine 1.7iPAs (1.7iPA1-9), were performed to characterize the INa1.7. The presence of 9 different 1.7iPAs in HEK1.7 cells on peak INa1.7 density (3 days after transfection) were summarized in FIG. 1F, in which the data points recorded by at least 2 replicates were combined. […] These experiments thus identified 1.7iPA1 and 1.7iPA4 (both derived from ICL1), as well as 1.7iPA6 (from ICL2), as effective iPAs (>50% INa1.7 inhibition). We next focused on the validation of INa1.7 inhibition and channel kinetics by 1.7iPA1, 4, and 6 on HEK1.7 cells in new experiments. […] The 1.7iPA1 peptide is polyampholytic, enriched with 38.6% positively charged arginine or lysine (17/44), 23% of serine (10/44), 14% acidic residues (6/44); and is highly conserved between rodents and humans (FIG. 2F).
EP recordings were performed, as we described previously with minor modifications at room temperature (22~25° C.) (10, 12), in a blind manner where the electrophysiologist was not aware of the treatment. Patch pipettes 0.9-2.5M2 resistance were formed from borosilicate glass (King Precision Glass Co., Claremont, CA) and fire polished. Recordings were made with an […] amplifier (Molecular Devices, Downingtown, PA). Signals were filtered at 5 kHz and sampled at 20 and 50 kHz (adopted from literature) (13-22) with a Digidata 1440A digitizer and pClamp10 software (Molecular Devices, San Jose, CA). Series resistance (3-5M (2) was monitored before and after the recordings, and data were discarded if the resistance changed by 20%. After achieving the whole-cell recording, capacitance (Cm) and series resistance (Rs) were compensated accordingly.
Sodium channel current (INa) recording in cultured cell lines. Whole-cell voltage-clamp to recording INa was performed in HEK1.7, HEK1.1, HEK1.3, HEK1.6, HEK1.5, HEK1.8, CHO1.8, NG108-15 cells, and F11cells in current-density (I-V) and fast-inactivation voltage protocols. External solution consists of the following (in mM): 110 NaCl, 20 tetraethylammonium-Cl, […]), 0.1 CaCl2, 5 MgCl2, 10 HEPES and 5.56 mM glucose (pH 7.4, 310-315 mosM/L). The internal pipette solution consisted of (in mM): 10 NaCl, 130 CsCl, 5 MgCl2, 5 EGTA, 2.5 Na2+ATP and 10 HEPES (pH 7.2). After formation of a tight seal (maximal leak amplitude <150 pA), membrane resistance and capacitance were determined. The voltage dependence of activation was assessed from holding potential using 50 ms pulses (test-pulse) to a range of test potentials from −100 mV to +50 mV in 5 mV or 10 mV incremental steps with an interval of 5 s. Current density was calculated by normalizing maximal peak currents with cell capacitance. The voltage dependence of steady-state fast inactivation was measured using a two-step protocol. A 500 ms pre-pulse with various potentials ranging from Vhold to +10 mV in 5 or 10 mV incremental steps was used to inactivate the channels. This pre-pulse was immediately followed by a 40 ms test-pulse at 0 mV to determine the remaining fraction of available channels. Inward current measured during the test-pulse to 0 mV was normalized to the cell's maximum test-pulse inward current. To determine the conductance-voltage (I-V) relationships of voltage-dependent activation, the peak current densities during each voltage command step were fitted to a smooth curve with a Boltzmann equation: I=Gmax (V-Erev)/[(1+exp [(V−V50)/k))], which provided the maximum conductance (Gmax). Normalized activation curves were fitted with a Boltzmann equation G/Gmax=1/(1+exp (V50-Vm)/k), where G was calculated as follows: G=I/(Vm−Erev). […]

human Nav1.8 = target: T2, human Nav1.8 (Homo sapiens, UniProt Q9Y5Y9, DEL1030-1030/M1713V); test: Whole-cell voltage-clamp of INa1.8 in HEK1.8 stable cells; format: cell-based; design: sensitivity of INa1.8 to channel blocker: dose or concentration left out as unconfirmed
T2 construct: cell line made in house
T2 sequence (Q9Y5Y9 with tags, fused parts or gaps DEL1030-1030/M1713V): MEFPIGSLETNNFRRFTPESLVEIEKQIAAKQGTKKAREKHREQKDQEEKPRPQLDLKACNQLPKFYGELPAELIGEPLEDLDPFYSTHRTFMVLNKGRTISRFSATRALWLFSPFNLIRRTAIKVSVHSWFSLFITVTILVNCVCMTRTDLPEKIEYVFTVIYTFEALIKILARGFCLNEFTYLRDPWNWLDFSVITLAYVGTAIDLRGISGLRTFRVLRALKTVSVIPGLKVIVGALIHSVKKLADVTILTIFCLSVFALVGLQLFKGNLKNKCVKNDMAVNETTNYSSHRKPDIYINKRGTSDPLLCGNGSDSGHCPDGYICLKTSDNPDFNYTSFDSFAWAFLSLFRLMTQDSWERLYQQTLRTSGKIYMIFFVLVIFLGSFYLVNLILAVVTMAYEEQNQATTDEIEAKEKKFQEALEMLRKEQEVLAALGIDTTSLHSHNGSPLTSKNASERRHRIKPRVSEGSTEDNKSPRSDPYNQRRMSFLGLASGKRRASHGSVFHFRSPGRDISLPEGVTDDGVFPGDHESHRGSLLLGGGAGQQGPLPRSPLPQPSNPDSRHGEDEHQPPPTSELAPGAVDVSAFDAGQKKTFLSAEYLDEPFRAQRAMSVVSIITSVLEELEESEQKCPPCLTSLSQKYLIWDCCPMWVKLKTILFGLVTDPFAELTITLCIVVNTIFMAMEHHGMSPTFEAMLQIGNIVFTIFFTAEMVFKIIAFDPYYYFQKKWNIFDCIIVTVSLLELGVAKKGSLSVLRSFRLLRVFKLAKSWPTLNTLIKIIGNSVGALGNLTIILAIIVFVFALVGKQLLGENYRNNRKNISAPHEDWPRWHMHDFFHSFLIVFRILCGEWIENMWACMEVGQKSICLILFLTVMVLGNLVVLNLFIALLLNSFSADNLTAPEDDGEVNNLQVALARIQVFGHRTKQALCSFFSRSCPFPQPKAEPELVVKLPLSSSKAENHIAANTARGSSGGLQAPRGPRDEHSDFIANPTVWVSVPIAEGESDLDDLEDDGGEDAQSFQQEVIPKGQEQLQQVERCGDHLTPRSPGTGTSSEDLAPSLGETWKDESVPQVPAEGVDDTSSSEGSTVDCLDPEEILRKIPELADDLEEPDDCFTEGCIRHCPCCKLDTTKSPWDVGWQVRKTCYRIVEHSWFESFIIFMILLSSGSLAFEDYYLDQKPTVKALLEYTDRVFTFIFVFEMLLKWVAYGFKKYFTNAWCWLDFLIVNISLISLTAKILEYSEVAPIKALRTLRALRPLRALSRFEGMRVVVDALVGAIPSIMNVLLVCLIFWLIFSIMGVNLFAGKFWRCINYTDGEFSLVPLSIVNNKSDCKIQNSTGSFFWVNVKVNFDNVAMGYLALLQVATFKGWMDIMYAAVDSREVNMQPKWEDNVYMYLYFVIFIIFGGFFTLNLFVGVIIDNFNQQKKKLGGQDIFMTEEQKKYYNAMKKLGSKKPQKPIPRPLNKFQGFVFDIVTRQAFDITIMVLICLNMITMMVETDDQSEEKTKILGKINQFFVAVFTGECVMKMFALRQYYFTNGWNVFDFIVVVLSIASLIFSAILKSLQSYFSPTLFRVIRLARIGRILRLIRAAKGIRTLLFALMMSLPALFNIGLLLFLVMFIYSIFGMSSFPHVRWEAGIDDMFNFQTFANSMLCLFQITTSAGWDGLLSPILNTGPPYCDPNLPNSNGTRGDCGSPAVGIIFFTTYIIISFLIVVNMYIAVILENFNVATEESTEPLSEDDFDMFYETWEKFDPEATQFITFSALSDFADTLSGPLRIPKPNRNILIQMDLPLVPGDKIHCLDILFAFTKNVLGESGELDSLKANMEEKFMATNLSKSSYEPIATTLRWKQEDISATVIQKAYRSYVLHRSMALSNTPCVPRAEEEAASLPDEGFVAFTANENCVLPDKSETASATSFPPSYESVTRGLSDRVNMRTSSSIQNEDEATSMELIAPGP

[1] = system: mechanical hypersensitivity; settings: after i.p. injection; cited from earlier work
Nav1.7 = target: T3, Nav1.7 (Homo sapiens, UniProt Q15858); test: Immunoblot of membrane Nav1.7 in fractionated HEK1.7 cells (intracellular trafficking); format: cell-based; settings: fractionated HEK1.7 cells after transfection
T3 construct: the Nav1.7 antibody detected full-length Nav1.7 only in HEK1.7 cells
T3 sequence (Q15858 whole entry): as the sequence (Q15858 whole entry) above
Method: Since Nav1.7 is an integral membrane protein, we therefore tested whether NaviPA1 expression in the HEK1.7 cells would interrupt Nav1.7 intracellular trafficking. […] Studies have shown that IDRs in the membrane proteins engage in interactions with the membrane (33). To test whether NaviPA1 interference of Nav1.7 might be via […] of Nav1.7, GFP affinity pull-down by ChromoTek GFP-Trap (ChromoTek, Rosemont, IL) was performed after transfection of GFP-NaviPA1 in HEK1.7 cells using GFPlinker (GFP) and GFP-1.7iPA2 (FIG. 1) as the controls. Cell lysates were prepared by a lysis buffer containing 0.5% Nonidet p40, a ‘non-denaturing’ mild lysis detergent, for preventing interaction breaking and maximizing the retention of NaviPA1-protein interactions (34). […] It has been reported that polybasic IDRs in transmembrane proteins preferably bind to negatively charged lipids (36, 37). We reasoned that NaviPA1 might be able to bind phosphoinositides, and this hypothesis was tested by using phosphatidylinositol phosphate (PIP) strips (Echelon PIP Strip, Salt Lake City, UT). […]
NaviPA1 is a polybasic arginine/lysine and serine-enriched peptide. […] However, the full-length Nav1.7 membrane integration, which is determined by its TM domains but not intracellular sequences, was unaffected in the presence of NaviPA1 (FIG. 6F). […]

DRG neurons = test: Whole-cell current-clamp of dissociated DRG neurons from TNI rats (excitability); format: cell-based, rat; settings: transduced small/medium-sized DRG neurons, male TNI rats, compared to sham
Description: Increased excitability of nociceptive PSNs is a fundamental process underlying neuropathic pain (46). We therefore examined whether AAV6-NaviPA1 treatment reverses the enhanced neuronal excitability of nociceptive PSNs following TNI (12, 47), using the whole-cell current-clamp AP recording of DRG dissociated neurons from rats after the treatment protocol shown in FIG. 7B. […] We therefore recorded from randomly chosen small/medium-sized neurons (<35 μm in diameter) (51) in the cultures from dissociated L4 and L5 DRG. Transduced neurons were identified by GFP fluorescence, and excitability was evaluated by measuring rheobase and repetitive action potential (AP) firing during 250 ms current pulses stepping from 100 pA and 280 pA current injection. […]
Whole-cell current-clamp recording on dissociated DRG neurons (male rats). […] The membrane input resistance was calculated by dividing the ending amplitude of steady-state hyperpolarizing voltage deflection by the injected current (27). […] The baseline potentials were recorded for 20 ms before the stimulus pulses were injected into the neurons. […] AP frequency was determined by quantifying the number of APs elicited in response to depolarizing current injections (250 ms).

[2] = HEK1.7 cells, initial screening

NC1=N[C@H](O)[C@H]2[C@H]3O[C@]4(O)O[C@@H]([C@@H](O)[C@@]2(N1)[C@@H]4O)[C@]3(O)CO [TTX, tetrodotoxin, reference compound]
Peak INa1.7 (hNav1.7): 2 ± 1 (10) pA/pF | sensitivity of INa1.8 to channel blocker (human Nav1.8): resistant

COc1cc(NC(=O)c2ccc(-c3ccc(Cl)cc3)o2)cc(OC)c1 [A803467, reference compound]
INa1.8 inhibition (human Nav1.8; 100 nM, HEK1.8 cells): 85% | sensitivity of INa1.8 to channel blocker (human Nav1.8; HEK1.8 cells): sensitive

NCC1(CC(=O)O)CCCCC1 [gabapentin, Gabapentin]
time of maximal reduction of mechanical hypersensitivity [1]: 30 to 60 min

NaviPA1mt1: GFP-fused NaviPA1 mutant, alanine substitution for ten serine residues (AAKAAKERRNRRKKKKQKMAAGEEKGDDEKLAKAGAEEAIRKKA; also: GFP fusion)
INa1.7 in presence of NaviPA1 mutants (hNav1.7; HEK1.7 cells): comparable to naïve and GFPNP transfected HEK1.7 cells | effect on INa1.8 (human Nav1.8; HEK1.8 cells): did not change | membrane Nav1.7 protein / Nav1.7 membrane integration (Nav1.7): not to impede

NaviPA1mt2: GFP-fused NaviPA1 mutant, alanine substitution for nine arginine or lysine within predicted polybasic NLS (SSKSAKEAANAAAAAAQAMSSGEEKGDDEKLSKSGSEESIRKKS; also: GFP fusion)
INa1.7 in presence of NaviPA1 mutants (hNav1.7; HEK1.7 cells): comparable to naïve and GFPNP transfected HEK1.7 cells | effect on INa1.8 (human Nav1.8; HEK1.8 cells): did not change | membrane Nav1.7 protein / Nav1.7 membrane integration (Nav1.7): not to impede

Nav1.7iPA3: inert peptide from N-terminus of Nav1.7 (SEQ ID NO: 3), used as control NP (SEEKAKEHKDEKKDDEEEGPKPSSDLEAGKQ)
Activation V50 (hNav1.7; [2]): 25.4 ± 1.2 (22) mV | Inactivation V50 (hNav1.7; [2]): 61.6 ± 2 (18) mV | Peak INa1.7 (hNav1.7; HEK1.7 cells, initial screening after plasmid transfection, value ± spread, (n) in cell): 118 ± 1 (22) pA/pF | effect on peak INa1.7 density (hNav1.7; compared to sham transfected HEK1.7 cells): no significant effects | rheobase and frequency of evoked APs in neurons from TNI rats (DRG neurons): no significant effects
